Experimental data taken from patent US20220293215A1.

Target: I-A^b (MHCII) of murine bone marrow-derived dendritic cells from C57BL/6J mice (mouse) (UniProt P14434)
Test: MHCII peptidomics: Y3P IP of peptide-MHCII from BMDCs exposed to live Listeria, iTRAQ LC-MS/MS
Conditions: scale: log2 fold change, Listeria 6 hr versus 10 min

logFC: 0.145
Substance: Listeria peptide mNRVmLPLQQmGAKMHGK (lmo1923 (aroE))
